Molecular target: T1, Aven (human, UniProt Q9NQS1 1-362)
T1 construct: also called Bif-1
T1 sequence: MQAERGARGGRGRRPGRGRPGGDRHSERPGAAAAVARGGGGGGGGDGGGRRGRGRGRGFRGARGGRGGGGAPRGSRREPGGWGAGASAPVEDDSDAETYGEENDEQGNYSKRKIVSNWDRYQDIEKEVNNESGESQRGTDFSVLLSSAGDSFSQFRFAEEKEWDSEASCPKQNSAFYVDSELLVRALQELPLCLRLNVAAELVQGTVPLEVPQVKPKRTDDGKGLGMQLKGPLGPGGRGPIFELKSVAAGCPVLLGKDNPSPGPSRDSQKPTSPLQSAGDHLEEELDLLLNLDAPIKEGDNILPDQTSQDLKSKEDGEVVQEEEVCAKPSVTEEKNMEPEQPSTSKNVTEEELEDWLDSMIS
Experiment: yeast two-hybrid / co-immunoprecipitation (FIG. 6)

B1: Bak (other, UniProt Q16611 1-211, looked up)
chain: MASGQGPGPPRQECGEPALPSASEEQVAQDTEEVFRSYVFYRHQQEQEAEGVAAPADPEMVTLPLQPSSTMGQVGRQLAIIGDDINRRYDSEFQTMLQHLQPTAENAYEYFTKIATSLFESGINWGRVVALLGFGYRLALHVYQHGLTGFLGQVTRFVVDFMLHHCIARWIAQRGGWVAALNLGNGPILNVLVVLGVVLLGQFVVRRFFKS
B1: no binding.
